Experimental data published in article PMC2756588.

T1: Hse1, P38753
T1 sequence (P38753 208-285, looked up): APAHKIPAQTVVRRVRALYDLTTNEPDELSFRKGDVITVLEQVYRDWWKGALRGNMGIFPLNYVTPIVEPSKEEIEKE

T2: Lsb1, P53281
T2 sequence (P53281 45-122, looked up): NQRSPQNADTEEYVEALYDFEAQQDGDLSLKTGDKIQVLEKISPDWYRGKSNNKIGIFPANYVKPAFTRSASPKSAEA

T3: Pin3, Q06449
T3 sequence (Q06449 53-122, looked up): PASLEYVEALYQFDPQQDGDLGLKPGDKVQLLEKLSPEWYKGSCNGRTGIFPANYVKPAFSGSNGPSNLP

T4: Fus1, P11710
T4 sequence (P11710 432-512, looked up): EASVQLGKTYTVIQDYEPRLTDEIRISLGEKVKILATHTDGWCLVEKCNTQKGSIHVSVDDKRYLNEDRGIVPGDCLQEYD

T5: Pex13, P80667
T5 sequence (P80667 295-386, looked up): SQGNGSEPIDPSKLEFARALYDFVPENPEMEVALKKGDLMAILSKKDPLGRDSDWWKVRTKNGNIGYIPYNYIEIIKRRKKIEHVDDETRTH

T6: Myo5, Q04439
T6 sequence (Q04439 1072-1160, looked up): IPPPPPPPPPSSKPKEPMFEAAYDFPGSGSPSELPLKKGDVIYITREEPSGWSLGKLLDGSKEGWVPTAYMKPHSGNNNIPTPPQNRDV

T7: Abp1, P15891
T7 sequence (P15891 535-592, looked up): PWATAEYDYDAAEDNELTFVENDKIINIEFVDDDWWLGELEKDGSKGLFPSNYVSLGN

T8: Lsb4, P32793
T8 sequence (P32793 402-468, looked up): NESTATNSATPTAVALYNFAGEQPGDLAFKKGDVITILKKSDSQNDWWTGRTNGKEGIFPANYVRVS

T9: Sla1-3, P32790
T9 sequence (P32790 344-424, looked up): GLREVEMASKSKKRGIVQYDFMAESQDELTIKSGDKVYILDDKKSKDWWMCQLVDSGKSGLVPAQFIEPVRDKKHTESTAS

T10: Boi1, P38041
T10 sequence (P38041 1-86, looked up): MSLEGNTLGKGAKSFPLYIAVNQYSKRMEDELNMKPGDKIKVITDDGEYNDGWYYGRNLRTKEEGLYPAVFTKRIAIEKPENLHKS

T11: Hof1, Q05080
T11 sequence (Q05080 590-669, looked up): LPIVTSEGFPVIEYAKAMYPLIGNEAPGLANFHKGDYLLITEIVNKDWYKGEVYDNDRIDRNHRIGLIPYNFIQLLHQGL

T12: Cdc25, P04821
T12 sequence (P04821 50-136, looked up): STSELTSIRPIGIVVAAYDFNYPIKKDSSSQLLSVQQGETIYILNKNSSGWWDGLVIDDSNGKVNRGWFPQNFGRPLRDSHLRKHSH

T13: Lsb3, P43603
T13 sequence (P43603 385-451, looked up): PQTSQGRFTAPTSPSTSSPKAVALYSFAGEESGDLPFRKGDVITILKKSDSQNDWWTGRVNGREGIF

T14: Bzz1-2, P38822
T14 sequence (P38822 568-633, looked up): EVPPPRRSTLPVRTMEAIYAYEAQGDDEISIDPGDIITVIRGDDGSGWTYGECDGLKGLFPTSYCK

T15: Boi2, P39969
T15 sequence (P39969 32-116, looked up): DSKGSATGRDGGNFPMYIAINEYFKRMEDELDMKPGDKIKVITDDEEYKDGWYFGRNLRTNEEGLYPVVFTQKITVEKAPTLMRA

T16: Bud14, P27637
T16 sequence (P27637 247-328, looked up): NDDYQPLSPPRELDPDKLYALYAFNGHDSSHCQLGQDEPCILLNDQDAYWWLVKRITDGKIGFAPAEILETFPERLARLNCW

T17: Bbc1, P47068
T17 sequence (P47068 1-78, looked up): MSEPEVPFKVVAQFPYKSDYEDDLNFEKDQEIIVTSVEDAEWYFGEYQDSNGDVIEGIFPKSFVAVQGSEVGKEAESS

T18: Sla1-2, P32790
T18 sequence (P32790 60-140, looked up): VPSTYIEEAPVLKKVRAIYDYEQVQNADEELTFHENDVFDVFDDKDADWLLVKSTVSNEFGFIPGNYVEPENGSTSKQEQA

T19: Cyk3, Q07533
T19 sequence (Q07533 1-83, looked up): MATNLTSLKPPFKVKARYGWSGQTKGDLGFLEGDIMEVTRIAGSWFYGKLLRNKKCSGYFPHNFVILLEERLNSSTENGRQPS

T20: Nbp2, Q12163
T20 sequence (Q12163 103-180, looked up): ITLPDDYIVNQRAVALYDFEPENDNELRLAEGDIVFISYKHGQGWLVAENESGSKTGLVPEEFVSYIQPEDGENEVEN

T21: Bzz1-1, P38822
T21 sequence (P38822 478-572, looked up): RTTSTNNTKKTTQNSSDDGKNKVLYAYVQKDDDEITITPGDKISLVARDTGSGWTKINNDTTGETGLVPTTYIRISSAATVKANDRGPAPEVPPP


Columns and labels:
Assay in all cases: SPOT array
[1] = biological target: T1, Hse1, P38753; conditions: median of control spots 1727
[2] = biological target: T2, Lsb1, P53281; conditions: median of control spots 388
[3] = biological target: Myo3, P36006; conditions: median of control spots 468
[4] = biological target: T3, Pin3, Q06449; conditions: median of control spots 2171
[5] = biological target: T4, Fus1, P11710; conditions: median of control spots 1200
[6] = biological target: Sho1, P40073; conditions: median of control spots 1148
[7] = biological target: T5, Pex13, P80667; conditions: median of control spots 1341
[8] = biological target: T6, Myo5, Q04439; conditions: median of control spots 471
[9] = biological target: T7, Abp1, P15891; conditions: median of control spots 935
[10] = biological target: Bem1-1, P29366; conditions: median of control spots 4282
[11] = biological target: T8, Lsb4, P32793; conditions: median of control spots 397
[12] = biological target: T9, Sla1-3, P32790; conditions: median of control spots 5475
[13] = biological target: T10, Boi1, P38041; conditions: median of control spots 1162
[14] = biological target: Rvs167, P39743; conditions: median of control spots 2707
[15] = biological target: T11, Hof1, Q05080; conditions: median of control spots 4086
[16] = biological target: T12, Cdc25, P04821; conditions: median of control spots 969
[17] = biological target: Bem1-2, P29366; conditions: median of control spots 4347
[18] = biological target: T13, Lsb3, P43603; conditions: median of control spots 406
[19] = biological target: T14, Bzz1-2, P38822; conditions: median of control spots 4538
[20] = biological target: T15, Boi2, P39969; conditions: median of control spots 1161
[21] = biological target: T16, Bud14, P27637; conditions: median of control spots 956
[22] = biological target: T17, Bbc1, P47068; conditions: median of control spots 796
[23] = biological target: T18, Sla1-2, P32790; conditions: median of control spots 712
[24] = biological target: T19, Cyk3, Q07533; conditions: median of control spots 1451
[25] = biological target: T20, Nbp2, Q12163; conditions: median of control spots 357
[26] = biological target: T21, Bzz1-1, P38822; conditions: median of control spots 4446
[27] = biological target: GST; conditions: median of control spots 978

Chain of Bem1-2, P29366 (P29366 139-227): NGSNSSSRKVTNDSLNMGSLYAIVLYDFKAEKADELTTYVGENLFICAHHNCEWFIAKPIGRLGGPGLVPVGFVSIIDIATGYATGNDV
Chain of Sho1, P40073 (P40073 287-367): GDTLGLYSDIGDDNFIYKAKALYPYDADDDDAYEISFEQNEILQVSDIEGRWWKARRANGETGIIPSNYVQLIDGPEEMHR
Chain of Rvs167, P39743 (P39743 419-482): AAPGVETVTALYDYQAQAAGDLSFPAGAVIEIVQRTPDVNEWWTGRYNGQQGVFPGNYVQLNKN
Chain of Bem1-1, P29366 (P29366 55-141): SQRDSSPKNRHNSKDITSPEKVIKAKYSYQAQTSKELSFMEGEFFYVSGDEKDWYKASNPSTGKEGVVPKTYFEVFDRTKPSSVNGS

| Binder | SPOT intensity [1] | SPOT intensity [2] | SPOT intensity [3] | SPOT intensity [4] | SPOT intensity [5] | SPOT intensity [6] | SPOT intensity [7] | SPOT intensity [8] | SPOT intensity [9] | SPOT intensity [10] | SPOT intensity [11] | SPOT intensity [12] | SPOT intensity [13] | SPOT intensity [14] | SPOT intensity [15] | SPOT intensity [16] | SPOT intensity [17] | SPOT intensity [18] | SPOT intensity [19] | SPOT intensity [20] | further results |
| --- | --- | --- | --- | --- | --- | --- | --- | --- | --- | --- | --- | --- | --- | --- | --- | --- | --- | --- | --- | --- | --- |
| ALFRLSFFFPLDPAY | 116 | 49 | 44 | 39 | 628 | 168 | 93 | 17 | 142 | 0 | 21 | 54 | 192 | 8 | 33 | 359 | 27 | 16 | 31 | 17 | SPOT intensity [21]: 12; SPOT intensity [22]: 218; SPOT intensity [23]: 4; SPOT intensity [24]: 13; SPOT intensity [25]: 283; SPOT intensity [26]: 0; SPOT intensity [27]: 1 |
| QFDLKMPSKPIHNLK | 0 | 1 | 34 | 68 | 0 | 7 | 95 | 29 | 41 | 0 | 27 | 0 | 0 | 6 | 0 | 1 | 0 | 9 | 0 | 2 | SPOT intensity [21]: 0; SPOT intensity [22]: 0; SPOT intensity [23]: 2; SPOT intensity [24]: 0; SPOT intensity [25]: 0; SPOT intensity [26]: 0; SPOT intensity [27]: 0 |
| FLIKFTPKFPQSIDH | 25 | 46 | 77 | 41 | 100 | 304 | 73 | 27 | 417 | 1 | 63 | 13 | 7 | 2 | 24 | 209 | 0 | 32 | 9 | 0 | SPOT intensity [21]: 5; SPOT intensity [22]: 44; SPOT intensity [23]: 10; SPOT intensity [24]: 0; SPOT intensity [25]: 418; SPOT intensity [26]: 0; SPOT intensity [27]: 0 |
| VGFRLALKFPSRITG | 113 | 452 | 164 | 150 | 430 | 718 | 127 | 69 | 489 | 0 | 207 | 124 | 152 | 6 | 25 | 490 | 0 | 166 | 109 | 70 | SPOT intensity [21]: 29; SPOT intensity [22]: 663; SPOT intensity [23]: 52; SPOT intensity [24]: 25; SPOT intensity [25]: 1100; SPOT intensity [26]: 3; SPOT intensity [27]: 0 |
